For assay [1], the target named is mRFP1-sspB-Nano (mRFP1 fused to the sspB-Nano protein, his-MBP removed by TEV protease). Put plainly: fluorescence microscopy of RFP-sspB-Nano recruitment to synthetic cells with membrane-bound protein; activation by blue laser light.
Assay [2] has the same target. The experiment in a line: fluorescence microscopy of RFP-sspB-Nano recruitment to synthetic cells with membrane-bound protein; activation by coelenterazine (bioluminescence).
The target is the same in assay [3]. Put plainly: fluorescence microscopy of RFP-sspB-Nano recruitment to synthetic cells with membrane-bound protein; activation by 488 nm laser.

A value given as a limit tells only on which side of the number the result lay.

Substance “his-Gluc-iLID (fusion of N-terminal Gaussia luciferase and C-terminal iLID with a linker peptide and an N-terminal his-tag)” gave a fold difference of mRFP1 intensity between dark and light conditions in assay [1] greater than 8 fold. Moreover, the fold increase of normalized mRFP1 intensity at the membrane against the dark conditions in assay [2] was determined as 2.5 fold. On to “his-iLID (his-tagged improved light-induced dimer)”, for which the fold increase of mRFP1 signal at the membrane against the dark conditions in assay [3] came to 1.5 fold.
